Publication PMC10587035 (Discover Mental Health, 2023)

Experiments:
human OT-R = biological target: T1, human OT-R (Homo sapiens, UniProt P30559); assay: In vitro oxytocin receptor activation assay (intracellular Ca2+ mobilization, Fluo-4); format: cell-based; details: HEK293 cells expressing human OT-R; ATP 10^-4 M as positive control; IgG applied without OT
T1 construct: expressed in transfected cells; host or cells: HEK293, stably transfected
T1 sequence (P30559 1-389): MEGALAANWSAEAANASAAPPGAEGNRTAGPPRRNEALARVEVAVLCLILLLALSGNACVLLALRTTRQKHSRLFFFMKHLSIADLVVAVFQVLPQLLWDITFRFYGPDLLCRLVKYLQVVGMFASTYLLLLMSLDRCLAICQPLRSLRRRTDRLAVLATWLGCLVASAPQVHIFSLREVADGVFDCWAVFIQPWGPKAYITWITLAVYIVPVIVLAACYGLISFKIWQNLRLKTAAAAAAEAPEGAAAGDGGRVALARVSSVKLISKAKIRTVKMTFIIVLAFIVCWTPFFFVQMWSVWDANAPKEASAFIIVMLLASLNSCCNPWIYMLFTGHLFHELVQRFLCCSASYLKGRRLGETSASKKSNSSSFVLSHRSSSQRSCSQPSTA
Description: Cells were grown on DMEM medium (Gibco, Thermo Fisher Scientific) with 10% FBS and 0.6% Penicillin/Streptomycin (Merck). To prepare assay plates, cell line was treated with 0.25% trypsin-EDTA (Gibco), cell pellet was resuspended in medium and filed in a flat clear bottom black 96-microwell plate (Greiner Bio-One, Les Ulis, France) at a rate of 50000 cells per well, which was coated during 1 h at 37°C with 100µg/mL of Poly-L-Lysin (Merck) and 1 h with 100µg/mL of Collagen I (Institut de Biotechnologie Jacques Boy, Reims, France). The microplate was incubated 24 hours at 37°C with 5% of CO2.
Briefly, confluent cells were incubated 45 min at 37°C with 2 µM Fluo-4 acetoxymethyl ester (AM) calcium dye (Life Technologies, Villebon-sur-Yvette, France) in complete HBSS, washed twice and incubated in 200 µL of the same complete medium at 37°C for 20 min. Fluorescence was recorded using a Flexstation III fluorescence microplate reader system (Molecular Devices, Saint-Grégoire, France) during 180 s with an excitation wavelength of 485 nm, an emission wavelength of 525 nm and a cutoff filter of 515 nm. […]
Ca^2+ releasing kinetics were determined, as well as area under curve, the maximal fluorescence peak and the time for which this maximum is reached. Fluorescence data were calculated as mean +/- SEM.

[1] = biological target: human oxytocin receptor, stably transfected in HEK293 cells (human) (UniProt P30559)
[2] = biological target: green-fluorescence protein (GFP)-labeled human OT-R in HEK293 cells (human) (UniProt P30559)

oxytocin, sequence (P01178 whole entry, looked up): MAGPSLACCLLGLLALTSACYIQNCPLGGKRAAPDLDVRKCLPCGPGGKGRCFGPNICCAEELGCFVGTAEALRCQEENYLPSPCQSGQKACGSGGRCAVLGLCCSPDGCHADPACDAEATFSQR

intracellular Ca2+ mobilization (result in words) (human OT-R)	EC50 of Ca2+ release in OT-R expressing cells, OT dose-response with OT preincubated with plasma IgG of aggressors (OT/IgG IC, fixed IgG 840 nM) [1] [nM]	EC50 of Ca2+ release in OT-R expressing cells, OT dose-response with OT preincubated with plasma IgG of controls (OT/IgG IC, fixed IgG 840 nM) [1] [nM]	intracellular Ca2+ mobilization in HEK293 cells stably transfected with human OT-R, OT alone at 10^-7 M (fold over basal levels) [1]	half-time internalization rate of GFP-labeled OT-R (membrane/cytoplasmic fluorescence, exponential decay model), OT alone [2] [min]	half-time internalization rate of GFP-labeled OT-R (membrane/cytoplasmic fluorescence, exponential decay model), OT in immune complex with plasma IgG of aggressors [2] [min]	half-time internalization rate of GFP-labeled OT-R (membrane/cytoplasmic fluorescence, exponential decay model), OT in immune complex with plasma IgG of controls [2] [min]	Compound
mild increase	–	–	–	–	–	–	Nc1ncnc2c1ncn2[C@@H]1O[C@H](COP(=O)(O)OP(=O)(O)OP(=O)(O)O)[C@@H](O)[C@H]1O [ATP, adenosine triphosphate]
–	6.1	3.1	3.5	16.7	23.3	6.4	oxytocin (from UniProt P01178 20-28) (peptide)
